Experimental data reported in patent publication US20240181022A1, “AMURINS LYSINS, AND LYSIN-ANTIMICROBIAL PEPTIDE (AMP) CONSTRUCTS ACTIVE AGAINST GRAM-NEGATIVE BACTERIA” (priority 2021, published 2024).
≈ marks a conversion by molar mass, not a printed value.

Columns and labels:
E. cloacae [1] = test: Checkerboard synergy assay (FICI) against E. cloacae; format: cell-based, Enterobacter cloacae; settings: E. cloacae ATCC 13047
Method: Any known method to assess MIC may be used.
Checkerboards are constructed by first preparing columns of e.g., a 96-well polypropylene microtiter plate, wherein each well has the same amount of antibiotic diluted 2-fold along the horizontal axis. […] Bacteria are added to the drug combinations at concentrations of 1×10^5 […] in CAA, for example, with or without human serum or pulmonary surfactant. […] Summation fractional inhibitory concentrations (ΣFICs) are calculated for each drug and the minimum ΣFIC value (ΣFICmin) is used to determine the effect of the Chp peptide/antibiotic combination.
GN370 was further tested in combination with up to seven additional antibiotics (in addition to meropenem) against a variety of bacterial strains, including P. aeruginosa, A. baumannii, E. coli, E. cloacae, and K. pneumoniae. GN370 and the subject antibiotics were tested in a checkerboard assay format, and FICI values were determined, wherein ≤0.5 indicates synergy, >0.5-≤1 indicates additive; and >1 indicates indifferent.

P. aeruginosa [2] = test: microbe, parasite or virus in culture; settings: Pseudomonas aeruginosa
A. baumannii = test: MIC by broth microdilution against A. baumannii; format: cell-based, Acinetobacter baumannii
E. cloacae [3] = test: MIC by broth microdilution against E. cloacae; format: cell-based, Enterobacter cloacae
E. coli [4] = test: MBEC against E. coli biofilm; format: cell-based, Escherichia coli; settings: MDR and XDR E. coli (11)
E. coli [5] = test: GN370 time-kill assay, E. coli; format: cell-based, Escherichia coli; settings: for Log10 CFU/mL: E. coli AR-128
Method: A kinetic analysis of GN370 bactericidal activity was performed using a time-kill assay format in which CFU reductions of each target organism (P. aeruginosa, K. pneumoniae, A. baumannii, E. coli, and E. cloacae) were measured over 24 hours at 37° C. […] Bactericidal activity was defined as CFU reductions of ≥3-log 10 CFU/mL as compared to the inoculum at the 24-hour time point. See Methods for Determining Bactericidal Activity of Antimicrobial Agents; Approved Guideline, NCCLS document M26-A, CLSI 1999 (Wayne, PA).

E. coli (ATCC 25922) = test: microbe, parasite or virus in culture; format: cell-based, Escherichia coli
P. aeruginosa [6] = test: SEM and TEM imaging of membrane damage; format: cell-based, Pseudomonas aeruginosa; settings: prior to pore formation and lysis
Method: Additionally, the mechanism of action of both the Chp peptides and the lysins and/or lysin-AMP constructs disclosed herein may be evaluated through the use of Scanning Electron Microscopy (SEM) and Transmission Electron Microscopy (TEM) techniques. Due to the rapid permeabilization and depolarization of bacterial membranes when contacted with Chp peptides, as discussed above, membrane damage may be visualized through SEM and TEM. […] TEM and SEM images taken approximately 2 minutes after Chp peptide (8 μg/mL) contact with P. aeruginosa show the formation of multiple bulges on the bacterial membrane, as well as the appearance of pore formation and degradation of the cellular membrane. TEM and SEM images taken approximately 5 minutes after Chp peptide (8 μg/mL) contact with P. aeruginosa show continued formation of membrane bulges, along with degradation of the cellular membrane, condensation of electron-dense cytoplasmic material, formation of spheroplasts, and pore formation. TEM and SEM images taken approximately 20 minutes after Chp peptide (8 μg/mL) contact with P. aeruginosa show multiple instances of pore formation and the appearance of ghost cells, empty of intracellular content.

[7] = Acinetobacter baumannii, AR Bank, N 41
[8] = Acinetobacter baumannii, Weill Cornell, N 26
[9] = Acinetobacter baumannii, all isolates, N 67
[10] = Enterobacter cloacae, AR Bank, N 7
[11] = Enterobacter cloacae, Weill Cornell, N 30
[12] = Enterobacter cloacae, all isolates, N 37

C[C@@H](O)[C@H]1C(=O)N2C(C(=O)O)=C(S[C@@H]3CN[C@H](C(=O)N(C)C)C3)[C@H](C)[C@H]12 [meropenem, reference compound]
FICI of the antibiotic with GN370 (E. cloacae [1]): 0.531 | MIC (P. aeruginosa [2]): 64 µg/mL (≈ 167 µM)

B1: GN370: lysin-AMP construct, SEQ ID NO: 149: MIDR, FIRL and NPTH moieties N-terminal to GN202 lysin (protein)
chain: MIDRFIRLNPTHGPRRPRRPGRRAPVRTSQRGIDLIKSFEGLRLSAYQDSVGVWTIGYGTTRGVTRYMTITVEQAERMLSNDIQRFEPELDRLAKVPLNQNQWDALMSFVYNLGAANLASSTLLDLLNKGDYQGAADQFPHWVNAGGKRLDGLVKRRAAERALFLEPLS
modifications: GN370 lysin
MIC (A. baumannii; A. baumannii ATCC BAA 747 (Table 27)): (MIC = 1 μg/mL) | MIC (A. baumannii; A. baumannii ATCC BAA-747 (head of Table 19)): 1 µg/mL | MIC90 (A. baumannii; A. baumannii clinical and resistant isolates): 1 µg/mL | MIC50 (A. baumannii; [7]): 1 µg/mL | MIC90 (A. baumannii; [7]): 1 µg/mL | MIC Range (A. baumannii; [7]): 0.064 to 2 µg/mL | MIC50 (A. baumannii; [8]): 1 µg/mL | MIC90 (A. baumannii; [8]): 1 µg/mL | MIC Range (A. baumannii; [8]): 0.25 to 1 µg/mL | MIC50 (A. baumannii; [9]): 1 µg/mL | MIC90 (A. baumannii; [9]): 1 µg/mL | MIC Range (A. baumannii; [9]): 0.0625 to 2 µg/mL | MIC (E. cloacae [3]; E. cloacae ATCC 13047 (head of Table 19)): 2 µg/mL | MIC (E. cloacae [3]; E. cloacae ATCC 29941): (MIC = 2 μg/mL) | MIC90 (E. cloacae [3]; E. cloacae clinical and resistant isolates): 4 µg/mL | MIC50 (E. cloacae [3]; [10]): 1 µg/mL | MIC90 (E. cloacae [3]; [10]): 4 µg/mL | MIC Range (E. cloacae [3]; [10]): 0.25 to 8 µg/mL | MIC50 (E. cloacae [3]; [11]): 2 µg/mL | MIC90 (E. cloacae [3]; [11]): 4 µg/mL | MIC Range (E. cloacae [3]; [11]): 0.25 to 8 µg/mL | MIC50 (E. cloacae [3]; [12]): 1 µg/mL | MIC90 (E. cloacae [3]; [12]): 4 µg/mL | MIC Range (E. cloacae [3]; [12]): 0.016 to 8 µg/mL | MBEC50 (E. coli [4]): 0.5 µg/mL | MBEC90 (E. coli [4]): 2 µg/mL | MBEC Range (E. coli [4]): 0.25 to 2 µg/mL | Number of isolates at MBEC 0.5 μg/mL (E. coli [4]): 5 | Number of isolates at MBEC 1 μg/mL (E. coli [4]): 2 | Number of isolates at MBEC 2 μg/mL (E. coli [4]): 2 | Number of isolates at MBEC […] (E. coli [4]): 2 | Log10 CFU/mL (E. coli [5]; 0.2x MIC, 24 hr): 8.4 Log10 CFU/mL | Log10 CFU/mL (E. coli [5]; 1x MIC, 1 hr): 4.4 Log10 CFU/mL | Log10 CFU/mL (E. coli [5]; 1x MIC, 3 hr): 2.5 Log10 CFU/mL | Log10 CFU/mL (E. coli [5]; 2x MIC, 1 hr): 4.4 Log10 CFU/mL | Log10 CFU/mL (E. coli [5]; 2x MIC, 3 hr): 2.2 Log10 CFU/mL | Log10 CFU/mL (E. coli [5]; 5x MIC, 1 hr): 3.0 Log10 CFU/mL | concentration with bactericidal activity (≥3-log 10 CFU/mL reduction at 24 hours) (E. coli [5]; E. coli, 37° C.): ≥ 1 ×MIC | change in MIC over 28-day serial passage (E. coli (ATCC 25922); E. coli (ATCC 25922)): No change | MIC (E. coli (ATCC 25922); E. coli ATCC 25922, target organism of serial passage study): 0.5 µg/mL | membrane damage seen by TEM and SEM (P. aeruginosa [6]): more extensive and larger membrane blebs
